{"source": "paper PMC6290019", "about": "(2018)", "key": {"[1]": {"target": "colE^des8", "assay": "SPR"}, "[2]": {"target": "colE^des1", "assay": "SPR"}, "[3]": {"target": "colE of designed pair 6 (cognate colE of Im^des6)", "assay": "SPR; two-state reaction fit, koff2"}, "[4]": {"target": "colE of designed pair 6 (cognate colE of Im^des6)", "assay": "SPR; two-state reaction fit, koff1"}, "[5]": {"target": "colE of designed pair 6 (cognate colE of Im^des6)", "assay": "SPR; two-state reaction fit"}, "[6]": {"target": "T1, Im^des3", "T1 chain": "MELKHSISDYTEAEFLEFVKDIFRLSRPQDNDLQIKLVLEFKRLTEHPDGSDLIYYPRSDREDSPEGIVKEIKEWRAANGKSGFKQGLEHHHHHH", "assay": "SPR"}, "[7]": {"target": "T2, Im^wt2 (Escherichia coli, UniProt P04482 1-86)", "T2 chain": "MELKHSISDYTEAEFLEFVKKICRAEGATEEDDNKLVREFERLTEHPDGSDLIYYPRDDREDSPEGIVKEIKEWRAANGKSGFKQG", "assay": "SPR"}, "[8]": {"target": "T3, Im^des8", "T3 chain": "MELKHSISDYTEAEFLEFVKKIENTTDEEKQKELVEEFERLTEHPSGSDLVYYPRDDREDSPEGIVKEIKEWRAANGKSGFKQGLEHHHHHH", "assay": "SPR"}, "[9]": {"target": "T4, Im^des7", "T4 chain": "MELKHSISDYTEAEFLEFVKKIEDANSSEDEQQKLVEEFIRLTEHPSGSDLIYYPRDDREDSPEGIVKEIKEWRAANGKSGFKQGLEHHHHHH", "assay": "SPR; two-state reaction fit, koff2"}, "[10]": {"target": "T4, Im^des7", "assay": "SPR; two-state reaction fit, koff1"}, "[11]": {"target": "colE of designed pair 5 (cognate colE of Im^des5)", "assay": "SPR; two-state reaction fit, koff2"}, "[12]": {"target": "colE of designed pair 5 (cognate colE of Im^des5)", "assay": "SPR; two-state reaction fit, koff1"}, "[13]": {"target": "colE of designed pair 5 (cognate colE of Im^des5)", "assay": "SPR; two-state reaction fit"}, "[14]": {"target": "colE^des2", "assay": "SPR"}, "[15]": {"target": "T2, Im^wt2", "assay": "SPR"}, "[16]": {"target": "T2, Im^wt2", "assay": "SPR"}, "[17]": {"target": "T2, Im^wt2", "assay": "value from previous stopped-flow measurements"}}, "data": [{"binder": "Im^des4 (designed binder) MELKHSISDYTEAEFLEFVKKIDLASSGGGGNELLSRALVEEFERLTEHPDGSDLIYYPRDDREDSPEGIVKEIKEWRAANGKSGFKQGLEHHHHHH", "values": [{"measurement": "Kd", "setting": "[1]", "result": "> 100000", "unit": "nM"}]}, {"binder": "Im^des1 (designed binder) MELKHSISDYTEAEFLEFVKKIYSKGKLDQKLRWVEEFVRLTEHPSGSDLIYYPRDDREDSPEGIVKEIKEWRAANGKSGFKQGLEHHHHHH", "values": [{"measurement": "koff", "setting": "[2]", "result": 0.00033, "unit": "s⁻¹"}]}, {"binder": "Im^des6 (designed binder) MELKHSISDYTEAEFLEFVKKIFSQGRLEETRPLVEEFERLTEHPDGSDLVYYPRDDREDSPEGIVKEIKEWRAANGKSGFKQGLEHHHHHH", "values": [{"measurement": "koff", "setting": "[3]", "result": 0.00026, "unit": "s⁻¹"}, {"measurement": "koff", "setting": "[4]", "result": 0.29, "unit": "s⁻¹"}, {"measurement": "Kd", "setting": "[5]", "result": 161, "unit": "nM"}]}, {"binder": "colE^des3 (designed binder) MESKRNKPGKATGKGKPVGDKWLDDAGKDSGAPIPDRIADKLRDKEFKNFDDFRKKFWKEVAKDPDLAKQFSKANQRNIKDGNAPFARESDQVGGRTTYELHHDKPISQDGGVYDMNNIRVTTPKRAIDIHRGK", "values": [{"measurement": "koff", "setting": "[6]", "result": 0.019, "unit": "s⁻¹"}, {"measurement": "Kd", "setting": "[7]", "result": "> 100000", "unit": "nM"}, {"measurement": "Kd", "setting": "[8]", "result": "> 100000", "unit": "nM"}]}, {"binder": "colE^des7 (designed binder) MESKRNKPGKATGKGKPVGDKWLDDAGKDSGAPIPDRIADKLRDKEFKNFDDFRKKFWEEVSKDPDLAKQFKRSNRKRIQQGYAPFAPQKDQVGGRTTFELHHDKPISQDGGVYDMNNIRVTTPKRAIDIHRGK", "values": [{"measurement": "koff", "setting": "[9]", "result": 0.0014, "unit": "s⁻¹"}, {"measurement": "koff", "setting": "[10]", "result": 0.014, "unit": "s⁻¹"}]}, {"binder": "Im^des5 (designed binder) MELKHSISDYTEAEFLEFVKKICNTDNENVQFKLVTEFERLTEHPDGSDLIYYPRDDREDSPEGIVKEIKEWRAANGKSGFKQGLEHHHHHH", "values": [{"measurement": "koff", "setting": "[11]", "result": 0.0011, "unit": "s⁻¹"}, {"measurement": "koff", "setting": "[12]", "result": 0.023, "unit": "s⁻¹"}, {"measurement": "Kd", "setting": "[13]", "result": 35, "unit": "nM"}]}, {"binder": "Im^des2 (designed binder) MELKHSISDYTEAEFLEFVKKIYNSTDEEKQKELVTEFERLTEHPSGSDLIYYPRDDREDSPEGIVKEIKEWRAANGKSGFKQGLEHHHHHH", "values": [{"measurement": "Kd", "setting": "[14]", "result": 0.32, "unit": "nM"}, {"measurement": "koff", "setting": "[14]", "result": 0.00041, "unit": "s⁻¹"}]}, {"binder": "colE^wt2 (His127Ala) (enzyme) MESKRNKPGKATGKGKPVGDKWLDDAGKDSGAPIPDRIADKLRDKEFKNFDDFRKKFWEEVSKDPDLSKQFKGSNKTNIQKGKAPFARKKDQVGGRERFELHHDKPISQDGGVYDMNNIRVTTPKRAIDIHRGK", "values": [{"measurement": "Kd", "setting": "[15]", "result": "< 0.1", "unit": "nM"}, {"measurement": "koff", "setting": "[16]", "result": 0.00016, "unit": "s⁻¹"}, {"measurement": "Kd", "setting": "[17]", "result": 0.004, "unit": "pM"}]}]}
